The numbers were not newly measured in article PMC10866841, which cites them from elsewhere.

By Kd is commonly meant the free concentration of one partner at which half of the binding sites on the other are occupied at equilibrium, for simple one-to-one binding.

In data set [1] the target is C4d C4d (Homo sapiens) (UniProt P0C0L4).
The target of data set [2] is oligomeric amyloid-β (Homo sapiens) (UniProt P05067).
For data set [3] the target is unchanged. The source holds these as a separate data set.
Data set [4] addresses C4d C4d (Homo sapiens) (UniProt P0C0L4). This is another data set of the same source.

Read-outs that look alike come from different tables or passages of the source.

Sequence of oligomeric amyloid-β (Homo sapiens) (P05067 672-713): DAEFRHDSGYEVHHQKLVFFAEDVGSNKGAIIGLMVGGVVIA
Sequence of C4d C4d (Homo sapiens) (P0C0L4 957-1336): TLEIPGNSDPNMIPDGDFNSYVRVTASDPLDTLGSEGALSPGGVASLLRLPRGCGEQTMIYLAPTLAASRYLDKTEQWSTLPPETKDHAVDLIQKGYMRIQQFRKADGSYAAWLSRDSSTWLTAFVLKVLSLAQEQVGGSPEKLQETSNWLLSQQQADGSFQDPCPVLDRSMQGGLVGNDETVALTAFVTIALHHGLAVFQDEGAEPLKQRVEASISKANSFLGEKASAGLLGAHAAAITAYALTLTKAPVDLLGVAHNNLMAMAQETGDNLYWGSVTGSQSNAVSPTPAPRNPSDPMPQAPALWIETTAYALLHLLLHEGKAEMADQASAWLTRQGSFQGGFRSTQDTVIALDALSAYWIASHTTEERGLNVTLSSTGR
Sequence of LILRB2 (Q8N423 22-460): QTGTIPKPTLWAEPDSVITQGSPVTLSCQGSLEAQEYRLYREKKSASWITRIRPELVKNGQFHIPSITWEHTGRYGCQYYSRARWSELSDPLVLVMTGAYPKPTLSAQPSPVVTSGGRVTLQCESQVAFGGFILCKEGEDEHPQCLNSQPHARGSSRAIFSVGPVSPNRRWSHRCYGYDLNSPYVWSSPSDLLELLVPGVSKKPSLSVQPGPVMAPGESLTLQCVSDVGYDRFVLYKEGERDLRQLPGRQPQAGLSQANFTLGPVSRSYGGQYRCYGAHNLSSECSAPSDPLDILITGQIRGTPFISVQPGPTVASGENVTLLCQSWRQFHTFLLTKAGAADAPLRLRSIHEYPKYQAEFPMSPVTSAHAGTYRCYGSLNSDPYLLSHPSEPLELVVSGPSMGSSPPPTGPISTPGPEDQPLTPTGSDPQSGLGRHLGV
Sequence of PIRB (P97484 25-642): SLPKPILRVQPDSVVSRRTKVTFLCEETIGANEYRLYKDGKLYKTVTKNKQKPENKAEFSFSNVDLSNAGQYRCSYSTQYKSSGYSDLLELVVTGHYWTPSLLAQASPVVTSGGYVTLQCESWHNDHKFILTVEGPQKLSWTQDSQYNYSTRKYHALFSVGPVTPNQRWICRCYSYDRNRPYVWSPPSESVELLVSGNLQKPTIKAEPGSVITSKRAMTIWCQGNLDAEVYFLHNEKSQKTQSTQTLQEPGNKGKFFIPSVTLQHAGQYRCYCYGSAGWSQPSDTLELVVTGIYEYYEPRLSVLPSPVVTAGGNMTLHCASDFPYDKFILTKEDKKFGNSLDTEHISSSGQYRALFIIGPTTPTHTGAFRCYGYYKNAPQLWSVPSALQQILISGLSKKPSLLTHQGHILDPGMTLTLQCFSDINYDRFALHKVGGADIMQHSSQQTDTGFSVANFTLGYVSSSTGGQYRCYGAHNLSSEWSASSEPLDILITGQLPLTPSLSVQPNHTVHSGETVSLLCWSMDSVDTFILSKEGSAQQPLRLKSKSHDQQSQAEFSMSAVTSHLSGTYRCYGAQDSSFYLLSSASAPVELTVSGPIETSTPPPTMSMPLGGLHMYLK

LILRB2 (from UniProt Q8N423): the equilibrium dissociation constant (Kd) is 630 nM in data set [1] and 180 nM in data set [2].

Take PIRB (from UniProt P97484): the figures for the Kd in data set [3] and in data set [4] were 180 nM and 630 nM, respectively.
